T1: GST-LDII_(C(198–210)) (GST fused to amino acids 198-210 of genotype II LDAg) (hepatitis delta virus genotype II …)
T1 construct: amino acids 198-210 of the large delta antigen of HDV genotype II, Taiwan-3 strain, GenBank U19598; Inserted downstream of GST in pGEX-4T1 by EcoRI and SalI; also called 13-amino-acid peptide of genotype II LDAg; source: E. coli BL21 (DE3), purified (glutathione beads); not shown: GST, N-terminal, kept
T1 chain: GPSPPQQRLPLLE

B1: clathrin heavy chain (full-length, endogenous in HuH-7 cells) (natural protein, human (endogenous in HuH-7), UniProt Q00610 1-1675, looked up)
chain: MAQILPIRFQEHLQLQNLGINPANIGFSTLTMESDKFICIREKVGEQAQVVIIDMNDPSNPIRRPISADSAIMNPASKVIALKAGKTLQIFNIEMKSKMKAHTMTDDVTFWKWISLNTVALVTDNAVYHWSMEGESQPVKMFDRHSSLAGCQIINYRTDAKQKWLLLTGISAQQNRVVGAMQLYSVDRKVSQPIEGHAASFAQFKMEGNAEESTLFCFAVRGQAGGKLHIIEVGTPPTGNQPFPKKAVDVFFPPEAQNDFPVAMQISEKHDVVFLITKYGYIHLYDLETGTCIYMNRISGETIFVTAPHEATAGIIGVNRKGQVLSVCVEEENIIPYITNVLQNPDLALRMAVRNNLAGAEELFARKFNALFAQGNYSEAAKVAANAPKGILRTPDTIRRFQSVPAQPGQTSPLLQYFGILLDQGQLNKYESLELCRPVLQQGRKQLLEKWLKEDKLECSEELGDLVKSVDPTLALSVYLRANVPNKVIQCFAETGQVQKIVLYAKKVGYTPDWIFLLRNVMRISPDQGQQFAQMLVQDEEPLADITQIVDVFMEYNLIQQCTAFLLDALKNNRPSEGPLQTRLLEMNLMHAPQVADAILGNQMFTHYDRAHIAQLCEKAGLLQRALEHFTDLYDIKRAVVHTHLLNPEWLVNYFGSLSVEDSLECLRAMLSANIRQNLQICVQVASKYHEQLSTQSLIELFESFKSFEGLFYFLGSIVNFSQDPDVHFKYIQAACKTGQIKEVERICRESNCYDPERVKNFLKEAKLTDQLPLIIVCDRFDFVHDLVLYLYRNNLQKYIEIYVQKVNPSRLPVVIGGLLDVDCSEDVIKNLILVVRGQFSTDELVAEVEKRNRLKLLLPWLEARIHEGCEEPATHNALAKIYIDSNNNPERFLRENPYYDSRVVGKYCEKRDPHLACVAYERGQCDLELINVCNENSLFKSLSRYLVRRKDPELWGSVLLESNPYRRPLIDQVVQTALSETQDPEEVSVTVKAFMTADLPNELIELLEKIVLDNSVFSEHRNLQNLLILTAIKADRTRVMEYINRLDNYDAPDIANIAISNELFEEAFAIFRKFDVNTSAVQVLIEHIGNLDRAYEFAERCNEPAVWSQLAKAQLQKGMVKEAIDSYIKADDPSSYMEVVQAANTSGNWEELVKYLQMARKKARESYVETELIFALAKTNRLAELEEFINGPNNAHIQQVGDRCYDEKMYDAAKLLYNNVSNFGRLASTLVHLGEYQAAVDGARKANSTRTWKEVCFACVDGKEFRLAQMCGLHIVVHADELEELINYYQDRGYFEELITMLEAALGLERAHMGMFTELAILYSKFKPQKMREHLELFWSRVNIPKVLRAAEQAHLWAELVFLYDKYEEYDNAIITMMNHPTDAWKEGQFKDIITKVANVELYYRAIQFYLEFKPLLLNDLLMVLSPRLDHTRAVNYFSKVKQLPLVKPYLRSVQNHNNKSVNESLNNLFITEEDYQALRTSIDAYDNFDNISLAQRLEKHELIEFRRIAAYLFKGNNRWKQSVELCKKDSLYKDAMQYASESKDTELAEELLQWFLQEEKRECFGACLFTCYDLLRPDVVLETAWRHNIMDFAMPYFIQVMKEYLTKVDKLDASESLRKEEEQATETQPIVYGQPQLMLTAGPSVAVPPQAPFGYGYTAPPYGQPQPGFGYSM
notes: clathrin heavy chain, endogenous in the human hepatoma cell line HuH-7, detected with anti-clathrin heavy chain; also called CHC; source: endogenous, HuH-7 lysate
B2: GST-LDIII_(C(198–210)) (GST fused to amino acids 198-210 of genotype III LDAg) (domain or fragment)
chain: FTPPPPGYYWVPG
notes: amino acids 198-210 of the large delta antigen of HDV genotype III, Peru-1 strain, GenBank L22063; Inserted downstream of GST in pGEX-4T1 by EcoRI and SalI; also called 13-amino-acid peptide of genotype III LDAg; source: E. coli BL21 (DE3), purified (glutathione beads); not shown: GST, N-terminal, kept
B3: 6XHis-CHC_((1–107)) (hexahistidine-tagged fragment, amino acids 1 to 107, of human clathrin heavy chain) (domain or fragment, UniProt Q00610 1-107, looked up)
chain: MAQILPIRFQEHLQLQNLGINPANIGFSTLTMESDKFICIREKVGEQAQVVIIDMNDPSNPIRRPISADSAIMNPASKVIALKAGKTLQIFNIEMKSKMKAHTMTDD
notes: human clathrin heavy chain, amino acids 1 to 107, cDNA amplified by RT-PCR and inserted downstream of the hexahistidine tag of pET-15b; also called fragment of CHC; 107-amino-acid peptide of CHC; source: E. coli BL21 (DE3), purified (nickel beads); not shown: His6, N-terminal, kept

How the values were obtained:
[1] = target: EGFP-LDII (EGFP fused to full-length large hepatitis delta antigen of HDV genotype II, Taiwan-3 strain) (hepatitis delta virus genotype II (Taiwan-3 strain)); assay: co-IP; HuH-7 cells transfected with pEGFP-C3 or pEGFP-LD plasmids, TNF-α (30 ng/ml) for 2 h at 24 h post-transfection; lysate precipitated with anti-GFP, blot for CHC; CHC normalised to actin, genotype I set to 1, mean of three experiments
[2] = target: EGFP-LDIII (EGFP fused to full-length large hepatitis delta antigen of HDV genotype III, Peru-1 strain) (hepatitis delta virus genotype III (Peru-1 strain)); assay: as above
[3] = target: T1, GST-LDII_(C(198–210)) (GST fused to …); assay: pull-down; GST or GST-LD_(C(198–210)) on Glutathione Sepharose 4B beads incubated with HuH-7 cell lysate for 16 h at 4°C; three washes with 0.05% Tween-20 in PBS; blot for CHC; mean of three experiments; details: one partner purified
[4] = target: B2; assay: as above; details: one partner purified
[5] = target: B3; assay: pull-down; GST or GST-LD_(C(198–210)) on Glutathione Sepharose 4B beads incubated with E. coli produced, purified 6XHis-CHC_((1–107)) for 16 h at 4°C; three washes with 0.05% Tween-20 in PBS; SDS-PAGE, silver stain; mean of three experiments; details: both partners purified
[6] = target: T1, GST-LDII_(C(198–210)) (GST fused to …); assay: as above; details: both partners purified
[7] = target: B2; assay: as above; details: both partners purified

clathrin heavy chain (full-length, endogenous in HuH-7 cells) (from UniProt Q00610 1-1675) (natural protein)
amount of CHC co-precipitated, ratio to EGFP-LDI (fold of EGFP-LDI) [1]: 2.6 | amount of CHC co-precipitated, ratio to EGFP-LDI (fold of EGFP-LDI) [2]: 2.2

B1
normalized amount of CHC bound, ratio to genotype I [3]: 1.6 fold of genotype I | normalized amount of CHC bound, ratio to genotype I [4]: 1.3 fold of genotype I

B2
binding result [5]: binds

B3
amount of CHC fragment pulled down, ratio to GST-LDI_(C(198–210)) [6]: 1.4 fold of GST-LDI_(C(198–210)) | amount of CHC fragment pulled down, ratio to GST-LDI_(C(198–210)) [7]: 0.7 fold of GST-LDI_(C(198–210))

From PMC2661055, “The C-terminal sequence of the large hepatitis delta antigen is variable but retains the ability to bind clathrin” (Virology Journal, 2009)
